Patent US20220119490A1 (Genentech, published 2022)

T1: PD-L2 extracellular domain (human, UniProt Q9BQ51 20-220)
T1 construct: extracellular domain; ECD construct; also called PDCD1LG2; programmed cell death 1 ligand 2
T1 sequence (looked up): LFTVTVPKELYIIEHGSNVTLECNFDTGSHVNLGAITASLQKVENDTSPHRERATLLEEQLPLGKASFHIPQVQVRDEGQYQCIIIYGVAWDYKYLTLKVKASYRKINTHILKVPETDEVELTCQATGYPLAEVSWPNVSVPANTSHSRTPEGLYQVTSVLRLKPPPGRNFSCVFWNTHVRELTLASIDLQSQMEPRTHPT

T2: AXL extracellular domain (human, UniProt P30530 26-451)
T2 construct: extracellular domain; Biotinylated ectodomain on streptavidin sensors in BLI; streptavidin tetramer in the cell assay; also called UFO; tyrosine-protein kinase receptor AXL
T2 sequence (looked up): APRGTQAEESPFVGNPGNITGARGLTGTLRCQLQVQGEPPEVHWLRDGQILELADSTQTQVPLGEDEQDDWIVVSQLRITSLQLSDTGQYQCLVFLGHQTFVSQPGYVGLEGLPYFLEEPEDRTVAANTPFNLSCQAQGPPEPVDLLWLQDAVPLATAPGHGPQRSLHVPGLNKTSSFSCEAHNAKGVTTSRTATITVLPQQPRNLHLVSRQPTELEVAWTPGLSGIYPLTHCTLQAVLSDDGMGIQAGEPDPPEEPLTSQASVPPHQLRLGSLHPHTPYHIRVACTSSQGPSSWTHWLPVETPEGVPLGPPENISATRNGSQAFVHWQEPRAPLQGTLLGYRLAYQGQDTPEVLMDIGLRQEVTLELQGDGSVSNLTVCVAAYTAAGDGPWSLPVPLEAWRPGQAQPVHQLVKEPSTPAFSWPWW

B1: CHL1 extracellular domain (receptor, human, UniProt O00533 25-1082, looked up)
chain: IEIPSSVQQVPTIIKQSKVQVAFPFDEYFQIECEAKGNPEPTFSWTKDGNPFYFTDHRIIPSNNSGTFRIPNEGHISHFQGKYRCFASNKLGIAMSEEIEFIVPSVPKFPKEKIDPLEVEEGDPIVLPCNPPKGLPPLHIYWMNIELEHIEQDERVYMSQKGDLYFANVEEKDSRNDYCCFAAFPRLRTIVQKMPMKLTVNSSNSIKQRKPKLLLPPTESGSESSITILKGEILLLECFAEGLPTPQVDWNKIGGDLPKGRETKENYGKTLKIENVSYQDKGNYRCTASNFLGTATHDFHVIVEEPPRWTKKPQSAVYSTGSNGILLCEAEGEPQPTIKWRVNGSPVDNHPFAGDVVFPREISFTNLQPNHTAVYQCEASNVHGTILANANIDVVDVRPLIQTKDGENYATVVGYSAFLHCEFFASPEAVVSWQKVEEVKPLEGRRYHIYENGTLQINRTTEEDAGSYSCWVENAIGKTAVTANLDIRNATKLRVSPKNPRIPKLHMLELHCESKCDSHLKHSLKLSWSKDGEAFEINGTEDGRIIIDGANLTISNVTLEDQGIYCCSAHTALDSAADITQVTVLDVPDPPENLHLSERQNRSVRLTWEAGADHNSNISEYIVEFEGNKEEPGRWEELTRVQGKKTTVILPLAPFVRYQFRVIAVNEVGRSQPSQPSDHHETPPAAPDRNPQNIRVQASQPKEMIIKWEPLKSMEQNGPGLEYRVTWKPQGAPVEWEEETVTNHTLRVMTPAVYAPYDVKVQAINQLGSGPDPQSVTLYSGEDYPDTAPVIHGVDVINSTLVKVTWSTVPKDRVHGRLKGYQINWWKTKSLLDGRTHPKEVNILRFSGQRNSGMVPSLDAFSEFHLTVLAYNSKGAGPESEPYIFQTPEGVPEQPTFLKVIKVDKDTATLSWGLPKKLNGNLTGYLLQYQIINDTYEIGELNDINITTPSKPSWHLSNLNATTKYKFYLRACTSQGCGKPITEESSTLGEGSKGIGKISGVNLTQKTHPIEVFEPGAEHIVRLMTKNWGDNDSIFQDVIETRGREYAGLYDDISTQGW
notes: extracellular domain; Soluble query (streptavidin tetramer) in cell assays; recombinant protein (R&D) in SPR; also called neural cell adhesion molecule L1-like protein; close homolog of L1
B2: CNTN5 expressed on cells (receptor, human, UniProt O94779 19-1072, looked up)
chain: EYSKSLPGLSTSYAALLRIKKSSSSSLFGSKTRPRYSSPSLGTLSASSPSWLGAAQNYYSPINLYHSSDAFKQDESVDYGPVFVQEPDDIIFPTDSDEKKVALNCEVRGNPVPSYRWLRNGTEIDLESDYRYSLIDGTFIISNPSEAKDSGHYQCLATNTVGSILSREATLQFAYLGNFSGRTRSAVSVREGQGVVLMCSPPPHSPEIIYSWVFNEFPSFVAEDSRRFISQETGNLYISKVQTSDVGSYICLVKNTVTNARVLSPPTPLTLRNDGVMGEYEPKIEVHFPFTVTAAKGTTVKMECFALGNPVPTITWMKVNGYIPSKARLRKSQAVLEIPNVQLDDAGIYECRAENSRGKNSFRGQLQVYTYPHWVEKLNDTQLDSGSPLRWECKATGKPRPTYRWLKNGVPLSPQSRVEMVNGVLMIHNVNQSDAGMYQCLAENKYGAIYASAELKILASAPTFALNQLKKTIIVTKDQEVVIECKPQGSPKPTISWKKGDRAVRENKRIAILPDGSLRILNASKSDEGKYVCRGENVFGSAEIIASLSVKEPTRIELTPKRTELTVGESIVLNCKAIHDASLDVTFYWTLKGQPIDFEEEGGHFESIRAQASSADLMIRNILLMHAGRYGCRVQTTADSVSDEAELLVRGPPGPPGIVIVEEITESTATLSWSPAADNHSPISSYNLQARSPFSLGWQTVKTVPEIITGDMESAMAVDLNPWVEYEFRVVATNPIGTGDPSTPSRMIRTNEAVPKTAPTNVSGRSGRRHELVIAWEPVSEEFQNGEGFGYIVAFRPNGTRGWKEKMVTSSEASKFIYRDESVPPLTPFEVKVGVYNNKGDGPFSQIVVICSAEGEPSAAPTDVKATSVSVSEILVAWKHIKESLGRPQGFEVGYWKDMEQEDTAETVKTRGNESFVILTGLEGNTLYHFTVRAYNGAGYGPPSSEVSATTKKSPPSQAPSNLRWEQQGSQVSLGWEPVIPLANESEVVGYKVFYRQEGHSNSQVIETQKLQAVVPLPDAGVYIIEVRAYSEGGDGTASSQIRVPSYSGGKITS
notes: whole, on cells; also called contactin 5
B3: TNFRS11A_DNA742118 (receptor, human, UniProt Q9Y6Q6 30-212, looked up)
extracellular domain construct of the screen: IAPPCTSEKHYEHLGRCCNKCEPGKYMSSKCTTTSDSVCLPCGPDEYLDSWNEEDKCLLHKVCDTGKALVAVVAGNSTTPRRCACTAGYHWSQDCECCRRNTECAPGLGAQHPLQLNKDTVCKPCLAGYFSDAFSSTDKCRPWTNCTFLGKRVEHHGTEKSDAVCSSSLPARKPPNEPHVYLP
notes: extracellular domain; also called TNFRSF11A
B4: IL1RL1 extracellular domain (receptor, human, UniProt Q01638 19-328, looked up)
chain: KFSKQSWGLENEALIVRCPRQGKPSYTVDWYYSQTNKSIPTQERNRVFASGQLLKFLPAAVADSGIYTCIVRSPTFNRTGYANVTIYKKQSDCNVPDYLMYSTVSGSEKNSKIYCPTIDLYNWTAPLEWFKNCQALQGSRYRAHKSFLVIDNVMTEDAGDYTCKFIHNENGANYSVTATRSFTVKDEQGFSLFPVIGAPAQNEIKEVEIGKNANLTCSACFGKGTQFLAAVLWQLNGTKITDFGEPRIQQEEGQNQSFSNGLACLDMVLRIADVKEEDLLLQYDCLALNLHGLRRHTVRLSRKNPIDHHS
notes: extracellular domain; Soluble analyte in BLI

Columns and labels:
L1CAM expressed on cells = biological target: T3, L1CAM expressed on cells (human, UniProt P32004 20-1257); assay: cell surface interaction assay: streptavidin-tetramerized biotinylated ECD on transfected cells, immunofluorescence
T3 construct: whole, on cells; also called L1 cell adhesion molecule
Source text: FIG. 3H is a schematic showing the design of the cell surface interaction assay.

[1] = biological target: B1; assay: as above
[2] = biological target: T1, PD-L2 extracellular domain; assay: extracellular interaction screen, normalized intensity; labelled dot against the clone named on the axis; which is query and which prey is not given; colour of the predicted class lost
AXL extracellular domain = biological target: T2, AXL extracellular domain; assay: biolayer interferometry, biotinylated AXL ectodomain on streptavidin sensors, IL1RL1 ectodomain in solution
Description: Interactions between AXL and the binding partners IL1RL1 and Gas6 were assayed by biolayer interferometry using an Octet Red system, as previously described (Husain et al., Mol Cell Proteomics, 18: 2310-2323, 2019). […] Data were analyzed using Forte Pall (Port Washington, N.Y.) software 9.0.

T3 sequence (P32004 20-1257): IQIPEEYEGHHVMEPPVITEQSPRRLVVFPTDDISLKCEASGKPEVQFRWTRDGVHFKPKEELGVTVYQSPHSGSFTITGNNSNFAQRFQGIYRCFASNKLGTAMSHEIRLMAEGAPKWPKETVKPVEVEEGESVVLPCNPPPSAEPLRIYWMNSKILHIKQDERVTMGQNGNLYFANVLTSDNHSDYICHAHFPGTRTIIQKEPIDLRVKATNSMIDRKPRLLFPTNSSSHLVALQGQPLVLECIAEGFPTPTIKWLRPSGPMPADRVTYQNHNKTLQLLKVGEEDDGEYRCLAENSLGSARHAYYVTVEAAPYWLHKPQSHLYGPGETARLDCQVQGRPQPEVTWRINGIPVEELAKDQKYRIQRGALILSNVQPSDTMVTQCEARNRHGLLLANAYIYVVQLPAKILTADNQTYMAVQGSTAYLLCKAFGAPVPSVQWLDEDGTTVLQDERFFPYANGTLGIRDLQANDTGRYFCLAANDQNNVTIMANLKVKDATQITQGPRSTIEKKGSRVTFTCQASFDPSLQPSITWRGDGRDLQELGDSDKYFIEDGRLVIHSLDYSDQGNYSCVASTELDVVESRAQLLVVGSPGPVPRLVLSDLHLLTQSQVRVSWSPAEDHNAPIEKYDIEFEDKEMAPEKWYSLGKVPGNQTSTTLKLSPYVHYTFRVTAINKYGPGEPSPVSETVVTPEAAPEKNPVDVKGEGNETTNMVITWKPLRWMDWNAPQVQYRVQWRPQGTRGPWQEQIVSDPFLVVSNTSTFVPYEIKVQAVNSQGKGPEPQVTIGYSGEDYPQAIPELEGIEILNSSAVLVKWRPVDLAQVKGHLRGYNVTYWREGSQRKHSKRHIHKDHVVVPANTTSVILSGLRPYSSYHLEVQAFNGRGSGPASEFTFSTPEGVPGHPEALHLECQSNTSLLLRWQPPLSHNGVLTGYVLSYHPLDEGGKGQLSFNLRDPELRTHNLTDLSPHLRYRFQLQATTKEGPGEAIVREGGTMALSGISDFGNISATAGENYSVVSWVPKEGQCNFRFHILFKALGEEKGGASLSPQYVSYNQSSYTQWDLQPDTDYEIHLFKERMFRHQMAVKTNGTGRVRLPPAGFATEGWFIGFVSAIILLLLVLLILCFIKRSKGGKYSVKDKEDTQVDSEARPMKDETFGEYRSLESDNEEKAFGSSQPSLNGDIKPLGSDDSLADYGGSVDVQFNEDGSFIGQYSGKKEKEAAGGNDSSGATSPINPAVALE

Binder: B1
binding result (L1CAM expressed on cells): binds

Binder: B2
binding result [1]: binds

Binder: B3
binding result [2]: binds

Binder: B4
binding result (AXL extracellular domain): binds
